Experimental findings from the DeepSol protein solubility set are described below.

The data set in a line: soluble on expression in E. coli; label from the status in PepcDB or PDB records.
As for “MGSDKIHHHHHHMQIDDFASNLRLLCSTESSVSAVCRQIGVNRQQFSKYLSGAARPSPSNMRKIAVHFGVRPAEFMLPADEFESHPSVAGKLVGPSVTHSDRDGFESAFRGQTIPLRRYLGYYLSYFLTQSWENSIICAIVRLDEVNGLIRCRSLERSIDPDDGSLYLSKYDGRVAMLGNRIFVMEYQTLARDALVETVLYPVGRGQLQYLRGTTFGITSRQRTPFTSPVVWRYLDDFPTLRDVMRKVGRYDINSAKLDPTARSILLGGHNKGTD”, the “soluble on expression in E. coli” value is “not soluble”.
For “MGGLYVSNFYGIFYSSNSESSTTLVDFCKYNAEIVEQTIFLEFVEFSNESIIFLKNLYSKMVNNSNFNIKKKFFHRKNSVTVYSNFLNFSKNLVKKFGV”, the “soluble on expression in E. coli” value is recorded as “not soluble”.
In the case of “MLVLGGISLFLFMVKQNEKAMLNQEKERAAVVLADNETRVLFFYKDTCADCQKVYPTVYEEDQGENNIVFINLNQPKNRHYIKTYTLEKVPTFVTPKRRYVGTDTRKIQQLIAENNDERSEDLEHHHHHH” it was “not soluble”; in that of “MRLIIVSGRSGSGKSTALNVLEDNGFYCIDNLPASLLPDLAQRALLHTELLQPQVAVSIDARNLPSQLQRFPELLQEVRDNHINCDVLYLDADDETLLKRFSETRRRHPLTTDTRSLAEAIGDESQLLGPIADLADLKLDTTSLNLYQLRDTIKLRLLNKPEPGTAFLVESFGFKRGMPVDADLVFDVRCLPNPYWKPELRDHSGLEPEVREYLAAQPDVEEMYQDIVGYLNKWLPRFAASNRSYVTVAIGCTGGHHRSVYLAERIGAALRDSLKNVQIRHRDLSS”, “not soluble”.
With “MSLHFLYYCSEPTLDVKIAFCQGFDKQVDVSYIAKHYNMSKSKVDNQFYSVEVGDSTFTVLKRYQNLKPIGSGAQGIVCAAYDAVLDRNVAIKKLSRPFQNQTHAKRAYRELVLMKCVNHKNIISLLNVFTPQKTLEEFQDVYLVMELMDANLCQVIQMELDHERMSYLLYQMLCGIKHLHSAGIIHRDLKPSNIVVKSDCTLKILDFGLARTAGTSFMMTPYVVTRYYRAPEVILGMGYKENVDIWSVGCIMGEMVRHKILFPGRDYIDQWNKVIEQLGTPCPEFMKKLQPTVRNYVENRPKYAGLTFPKLFPDSLFPADSEHNKLKASQARDLLSKMLVIDPAKRISVDDALQHPYINVWYDPAEVEAPPPQIYDKQLDEREHTIEEWKELIYKEVMNSEEKTKNGVVKGQPSPSGAAVNS”, the “soluble on expression in E. coli” value was “soluble”.
On to “MNRIKVAILFGGCSEEHDVSVKSAIEIAANINKEKYEPLYIGITKSGVWKMCEKPCAEWENENCYSAVLSPDKKMHGLLVKKNHEYEINHVDVAFSALHGKSGEDGSIQGLFELSGIPFVGCDIQSSAICMDKSLTYIVAKNAGIATPAFWVINKDDRPVAATFTYPVFVKPARSGSSFGVKKVNSADELDYAIESARQYDSKILIEQAVSGCEVGCAVLGNSAALVVGEVDQIRLQYGIFRIHQEVEPEKGSENAVITVPADLSAEERGRIQETVKKIYKTLGCRGLARVDMFLQDNGRIVLNEVNTLPGFTSYSRYPRMMAAAGISLPELIDRLIVLALKG”, for which the “soluble on expression in E. coli” value is given as “soluble”.
Take “MGHHHHHHSHMPASLALLQPRAMMKTLSSGNCTLSVPAKNSYRMVVLGASRVGKSSIVSRFLNGRFEDQYTPTIEDFHRKVYNIRGDMYQLDILDTSGNHPFPAMRRLSILTGDVFILVFSLDNRESFDEVKRLQKQILEVKSCLKNKTKEAAELPMVICGNKNDHGELCRQVPTTEAELLVSGDENCAYFEVSAKKNTNVDEMFYVLFSMAKLPHEMSPALHRKISVQYGDAFHPRPFCMRRVKEMDAYGMVSPFARRPSVNSDLKYIKAKVLREGQARERDKCTIQ”: the “soluble on expression in E. coli” value is on record as “not soluble”.
As for “MKLNKLFDSKTVVFKKSDKYGKSDCCKTKCVEGQIEFGVKIPTDFPAFNRALVTFLKTQKNQLNVDLDSFVELYKAENLCYKTALKVVVASITFCETTPFTMKTEPQKNVEVAVKCDSEHTSLIKEYEV”, the “soluble on expression in E. coli” value is “not soluble”.
The same measure for “MGSDKIHHHHHHMKIVTYSKNVFIPLTRNCRNRCDYCGFRSEEIGVMSAEEVRKILSAARGAKEALFTFGERPDEVYPEFKAMLLEMGYKSMVDYILEMNKIAVEMGFLPHTNAGILSKEEMRKLKPYNASMGLMLEQAVELECHANSPGKKPEVRIKMIRDAGKLQIPFTTGILVGIGEGREDRLYSLEIIAEIQDNYGHIQEVIVQNFKPKKGTPMENTPPPTLEEMLEAVKAAREILPQEVAIQIPPNLVDDIYPFLKAGANDVGGISNVTHDYINPESPWPEVERLERALRGEFILKERLPIYPRFVKLKWYGEALEPLIEKYSDADGYARP”: “not soluble”; for “MLVAQHTVYFPDAFLTQMREAMPSTLSFDDFLAACQRPLRRSIRVNTLKTSVADFLRLTAPYGWTLTPIPWCEEGFWIERDDEDALPLGSTAEHLSGLFYIQEASSMLPVAALFADGNAPQRVMDVAAAPGSKTTQIAARMNNEGAILANEFSASRVKVLHANISRCGISNVALTHFDGRVFGAALPEMFDAILLDAPCSGEGVVRKDPDALKNWSPESNQEIAATQRELIDSAFHALRSGGTLVYSTCTLNREENESVCLWLKETYPDAVEFLPLGDLFPGANKALTEEGFLHVFPQIYDCEGFFVARLRKTQAIPALPTPKYKVGNFPFSPVKDREAAQIRQAAASVGLNWDGNLRLWQRDKEVWLFPVGIEALIGKVRFSRLGIKLAETHNKGYRWQHEAVIALASPDNENAFELTPQEAEEWYRGRDVYPQAAPVADDVLVTFQHQPIGLAKRIGSRLKNSYPRELVRDGKLFTSNA”: “soluble”; for “MPGQPFGVYLHVPFCLTRCGYCDFNTYTPAQLGGVSPDRWLLALRAELELAAAKLDAPTVHTVYVGGGTPSLLGGERLATLLDMVRDHFVLAPDAEVSTEANPESTWPEFFATIRAAGYTRVSLGMQSVAPRVLATLDRVHSPGRAAAAATEAIAEGFTHVNLDLIYGTPGESDDDLVRSVDAAVQAGVDHVSAYALVVEHGTALARRVRRGELAAPDDDVLAHRYELVDARLSAAGFAWYEVSNWCRPGGECRHNLGYWDGGQWWGAGPGAHGYIGVTRWWNVKHPNTYAEILAGATLPVAGFEQLGADALHTEDVLLKVRLRQGLPLARLGAAERERAEAVLADGLLDYHGDRLVLTGRGRLLADAVVRTLLG”: “not soluble”.
On to “MGSDKIHHHHHHMIKVAAAGGGTGGHLYPLLAILETLAKRVDVKVLFFAVKGKIDERVVRKDHPEFETVSIDVRGLLRPLHHPKNLWRTLKIGIATIEVKKHLKRFKPDLVVLTGGYISGVVGLAAKDLGIPIFVHEQNVVPGLAVKVLSQYAKKVFVSFERTRDYLREWQDKIVVTGCPVRETEKEAPLKDFVLVLGGSLGSEAINELMEKVYPELQETQFVHSTGSDDWTERLSVFPNVTALTYIDPMGAYWKKAIASISRAGASTIAEMMYYGVPGILIPWESSAESHQLENALEAERLGYAIVIRENEASPRKIIESIDKVVKKGKIEKMKENPASKISKEILGEIM”, for which the “soluble on expression in E. coli” value is listed as “not soluble”.
In the case of “MKVLVSPMSVAEAIEAIEGGADIIDVKNPAEGSLGANFPWVIREISELAKKYGKEISATTGDMPYKPGTASLAALGAAVAGADYIKVGLYGVKNAEEAYEMMVGVVRAVKDFDSSKKVVAAGYGDYYRISSVSPLDLPEAVAKAGADIVMVDTAIKDGTSLFDHMKIGDIESFVKLARDNGLMVALAGNISWNHIETLKELSPDIIGVRSIVCEGDRSSMIKRELVVKLMEAVHG” it was “not soluble”; in that of “AATSRDALPNTEASGPTHSKEIPALTAVETGATNPLVPSDTVQTRHVVQHRSRSESSIESFFARGACVTIMTVDNPASTTNKDKLFAVWKITYKDTVQLRRKLEFFTYSRFDMELTFVVTANFTETNNGHALNQVYQIMYVPPGAPVPEKWDDYTWQTSSNPSIFYTYGTAPARISVPYVGISNAYSHFYDGFSKVPLKDQSAALGDSLYGAASLNDFGILAVRVVNDHNPTKVTSKIRVYLKPKHIRVWCPRPPRAVAYYGPGVDYKDGTLTPLSTKDLTTY”, “soluble”.
In the case of “SKELKVLVLCAGSGTSAQLANAINEGANLTEVRVIANSGAYGAHYDIMGVYDLIILAPQVRSYYREMKVDAERLGIQIVATRGMEYIHLTKSPSKALQFVLEHYQ”, the “soluble on expression in E. coli” value is on record as “not soluble”.
“MGHHHHHHSHMQEQVLYPLEAEVTMVTSFQDADPMGVIYHGNFFRYFEEARRVLMEKIQYGYRDMQDSGYMWPIIDTRVKYVKAIPFNHTIRITAQLTEWENRLRVDYVIYDAETNQRMCKAHTTQVAVSIEKQEMCFVSPAVFLDKVEQWHNHGSLN”: the “soluble on expression in E. coli” value is reported as “soluble”.
Turning to “MSVGYDRLKTSSLAELRAAIRSGAYRSHTAGLGQGYLQANLAILPEAYALDFMRYCQRNPKPCPLIGVSDTGNPMMFTLGRDIDIRTDVPAYNVYRDGRLDSVSADITEDWRDDLVVFALGCSFTFEHAVMRAGVALWHVDNDRTVPMFRSNIETVPAGPFSGKMVVSMRAVPEDRVAEVAEISRAYPLAHGAPVYWGDPAGLGIADIMSPDWGDPAPLGPGEVPMFWACGVTPQVAIEAARLPLCITHKPGHMLITDVAEDAEVPVVETAQDKRLEHHHHHH”, the “soluble on expression in E. coli” value is “soluble”.
For the sequence “MIIYTTPTALILEEQGERVEFDRRNGKVLEKPEESLEILDQDVVLCGNVEFLIGKISFDEQHFLFFVVDSSVVACYRGTSAESSHSIRRIERVIAINVKSDGSVIKSQITPGSGTKLKQGTEKIMKFFAEKVTKAEPRPALLDDVLKLFNDSKDFYFCRSRDVTISSQKYFEKREAHTSEDSFFWNKRMVGNLGEAKISDKFTCPIMQGYVATSQLEITDQINAYLTITIISRRSTRRAGARYLRRGIDEASNVANFVETELILNIFEHELSFVQCRGSIPVFWSQRGFKYRPPLIINRSVEETHGVFTEHFKRLKAHYDTPLVAVSLVDQRGRELPLAQRFLEHCVKADDNDVTFFSFDLHQHCRGLNFQKLQTLISSMEETLKTIGFCWVDKTGEVVQSQKGVVRTNCIDCLDRTNLVQGQISLFVVLQQAQRLGIFGPLCEPPEVLVQTMQTMWADNGDVISTQYAGTAALKGDVTRNGERKLMGVMKDGYNSASRYYLTHTKDAQRQKAINIVTGQTEADENAEEEENEKEEEENISRMVTETIQFLVPTQQTVIAGWGLINAFQSSDEIDTVVILTRSNLYIVTYEIDGEKMTDVQIVALEDINTIQTGTSGNNRQCARLETLEGVFIWRPSTVRLFNNTAIRLKSLEEANEYISSVAEQIQVGRNMLTGAEGSVVPVAKITIPQMSVHRKSMAAMGALFGKIKRVGKPSSLSKSASTISTAQLPETDGNESDASQKSDHLMTKILKMSQFKSDSPQPEPFSSLLPAISECQTKISLL”, the “soluble on expression in E. coli” value is recorded as “not soluble”.
In the case of “MGSDKIHHHHHHMGKPTGFMEYDRCEAASVEPKERIKNFNEFHVFLSKENQQKQAARCMDCGVPFCQSGMTIAGMTSGCPLHNLVPEWNDLVYTGNWEQAYNRLHKTNNFPEFTSRVCPALCEKACTCGHWGSPVSVRDNEHGIIETAYANGYAAPKPPKVRTGKKVAIIGSGPSGLAAADQLNQRGHDVTVYEREDRVGGLLMYGIPNMKLDKSIIDRKVNIMKEEGIHFVTGCDVGKDIKPAELYKKYDRVILCCGAKNPRDIKADGRDAKGIYFAVDYLTQNTKSLLNSNLTDGKFVSAKGKNVVIIGGGDTGNDCVGTAIRQGAKSVTQLEMMPCPPTERAANNPWPQWPKVLKTDYGQEEAIAVFGHDPRTYKTTVKEFHKDKNGNLKELTIVSLESKKDEKTGRFMMVPVEGSEKKLPAELVLIAAGFLGTESYVAKAFGVELNARTNVSTQEGHYATNVKNVYVAGDNHRGQSLVVWAIREGREAAREVDESLMGYSYLSVQ”, the “soluble on expression in E. coli” value was “not soluble”.
